Starred links: 1 amine or outer side, 2 acyl side, 3 side chain; linkers in the order of their positions; H or OH if unused. Non-standard residues stand in square brackets, D forms with d. Groups on a side chain read outwards from the residue. *: point of attachment. C20 diacid = O=C(O)CCCCCCCCCCCCCCCCCCC(=O)*; γGlu = O=C(O)[C@H](CCC(=O)[*:2])N[*:1]; Palmitoyl = CCCCCCCCCCCCCCCC(=O)*; Aib = CC(C)(N)C(=O)O
T1: human GIP receptor (human, UniProt P48546 22-466)
T1 sequence (looked up): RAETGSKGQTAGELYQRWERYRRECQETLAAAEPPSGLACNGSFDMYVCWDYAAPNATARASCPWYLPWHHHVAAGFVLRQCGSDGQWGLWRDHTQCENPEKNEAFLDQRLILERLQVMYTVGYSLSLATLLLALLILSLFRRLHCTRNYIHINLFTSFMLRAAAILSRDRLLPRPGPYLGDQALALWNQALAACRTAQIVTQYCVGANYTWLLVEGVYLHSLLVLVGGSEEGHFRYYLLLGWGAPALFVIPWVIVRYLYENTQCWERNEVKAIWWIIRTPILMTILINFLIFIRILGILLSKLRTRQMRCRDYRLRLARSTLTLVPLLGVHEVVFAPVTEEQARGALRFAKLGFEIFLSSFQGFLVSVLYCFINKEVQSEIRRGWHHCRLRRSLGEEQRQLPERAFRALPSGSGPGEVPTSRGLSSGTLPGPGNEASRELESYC


Key:
Experiment in all cases: cell-based or functional assay
human GIP receptor [1] = biological target: T1, human GIP receptor
human GIP receptor [2] = biological target: T1, human GIP receptor; remark: listed apart in the source
human GLP-1 receptor = human GLP-1 receptor (human, UniProt P43220 24-463)

| Binder | EC50 hGIP R (cAMP, HEK293 cells expressing the GIP R) (human GIP receptor [1]) | EC50, hGIP-R level of cAMP (HEK293 cells expressing human GIP R) (human GIP receptor [2]) | EC50 hGLP1 R (cAMP, HEK293 cells expressing the GLP-1R) (human GLP-1 receptor) |
| --- | --- | --- | --- |
| H-Y[Aib]EGTFISDYSIELDKIHQQDFVNWLLAQGPSSGAPPPSK([γGlu-Palmitoyl])-NH2 (SMILES CCCCCCCCCCCCCCCC(=O)N[C@@H](CCC(=O)NCCCC[C@H](NC(=O)[C@H](CO)NC(=O)[C@@H]1CCCN1C(=O)[C@@H]1CCCN1C(=O)[C@@H]1CCCN1C(=O)[C@H](C)NC(=O)CNC(=O)[C@H](CO)NC(=O)[C@H](CO)NC(=O)[C@@H]1CCCN1C(=O)CNC(=O)[C@H](CCC(N)=O)NC(=O)[C@H](C)NC(=O)[C@H](CC(C)C)NC(=O)[C@H](CC(C)C)NC(=O)[C@H](Cc1c[nH]c2ccccc12)NC(=O)[C@H](CC(N)=O)NC(=O)[C@@H](NC(=O)[C@H](Cc1ccccc1)NC(=O)[C@H](CC(=O)O)NC(=O)[C@H](CCC(N)=O)NC(=O)[C@H](CCC(N)=O)NC(=O)[C@H](Cc1c[nH]cn1)NC(=O)[C@@H](NC(=O)[C@H](CCCCN)NC(=O)[C@H](CC(=O)O)NC(=O)[C@H](CC(C)C)NC(=O)[C@H](CCC(=O)O)NC(=O)[C@@H](NC(=O)[C@H](CO)NC(=O)[C@H](Cc1ccc(O)cc1)NC(=O)[C@H](CC(=O)O)NC(=O)[C@H](CO)NC(=O)[C@@H](NC(=O)[C@H](Cc1ccccc1)NC(=O)[C@@H](NC(=O)CNC(=O)[C@H](CCC(=O)O)NC(=O)C(C)(C)NC(=O)[C@@H](N)Cc1ccc(O)cc1)[C@@H](C)O)[C@@H](C)CC)[C@@H](C)CC)[C@@H](C)CC)C(C)C)C(N)=O)C(=O)O) [Compound 5] | 0.014 nM | 0.014 nM |  |
| H-Y[Aib]EGTFISDYSIELDKIHQQDFVNWLLAQKGK([γGlu-Palmitoyl])-NH2 (SMILES CCCCCCCCCCCCCCCC(=O)N[C@@H](CCC(=O)NCCCC[C@H](NC(=O)CNC(=O)[C@H](CCCCN)NC(=O)[C@H](CCC(N)=O)NC(=O)[C@H](C)NC(=O)[C@H](CC(C)C)NC(=O)[C@H](CC(C)C)NC(=O)[C@H](Cc1c[nH]c2ccccc12)NC(=O)[C@H](CC(N)=O)NC(=O)[C@@H](NC(=O)[C@H](Cc1ccccc1)NC(=O)[C@H](CC(=O)O)NC(=O)[C@H](CCC(N)=O)NC(=O)[C@H](CCC(N)=O)NC(=O)[C@H](Cc1c[nH]cn1)NC(=O)[C@@H](NC(=O)[C@H](CCCCN)NC(=O)[C@H](CC(=O)O)NC(=O)[C@H](CC(C)C)NC(=O)[C@H](CCC(=O)O)NC(=O)[C@@H](NC(=O)[C@H](CO)NC(=O)[C@H](Cc1ccc(O)cc1)NC(=O)[C@H](CC(=O)O)NC(=O)[C@H](CO)NC(=O)[C@@H](NC(=O)[C@H](Cc1ccccc1)NC(=O)[C@@H](NC(=O)CNC(=O)[C@H](CCC(=O)O)NC(=O)C(C)(C)NC(=O)[C@@H](N)Cc1ccc(O)cc1)[C@@H](C)O)[C@@H](C)CC)[C@@H](C)CC)[C@@H](C)CC)C(C)C)C(N)=O)C(=O)O) [Compound 7] | 0.032 nM | 0.018 nM |  |
| H-Y[Aib]EGTFISDYSIELDKIHQQDFVNWLLAQK([γGlu-Palmitoyl])-NH2 (SMILES CCCCCCCCCCCCCCCC(=O)N[C@@H](CCC(=O)NCCCC[C@H](NC(=O)[C@H](CCC(N)=O)NC(=O)[C@H](C)NC(=O)[C@H](CC(C)C)NC(=O)[C@H](CC(C)C)NC(=O)[C@H](Cc1c[nH]c2ccccc12)NC(=O)[C@H](CC(N)=O)NC(=O)[C@@H](NC(=O)[C@H](Cc1ccccc1)NC(=O)[C@H](CC(=O)O)NC(=O)[C@H](CCC(N)=O)NC(=O)[C@H](CCC(N)=O)NC(=O)[C@H](Cc1c[nH]cn1)NC(=O)[C@@H](NC(=O)[C@H](CCCCN)NC(=O)[C@H](CC(=O)O)NC(=O)[C@H](CC(C)C)NC(=O)[C@H](CCC(=O)O)NC(=O)[C@@H](NC(=O)[C@H](CO)NC(=O)[C@H](Cc1ccc(O)cc1)NC(=O)[C@H](CC(=O)O)NC(=O)[C@H](CO)NC(=O)[C@@H](NC(=O)[C@H](Cc1ccccc1)NC(=O)[C@@H](NC(=O)CNC(=O)[C@H](CCC(=O)O)NC(=O)C(C)(C)NC(=O)[C@@H](N)Cc1ccc(O)cc1)[C@@H](C)O)[C@@H](C)CC)[C@@H](C)CC)[C@@H](C)CC)C(C)C)C(N)=O)C(=O)O) [Compound 6] | 0.014 nM | 0.032 nM |  |
| YAEGTFISDYSIELDKKAQRAFIEWLLAQGPSSGAPPPS (Aib at 2; Lys 17 side chain acylated: K((19-Carboxy-nonadecanoyl)-[(Piperazine-1-yl)-acetyl]-Peg3-Peg3); C-terminal amide (-NH2)) [Compound 19] | 0.005 nM | 0.006 nM | > 3 nM |
| YAEGTFISDYSIELDKKAQKEFVEWLLAAGPSSGAPPPS (Aib at 2; Lys 17 side chain acylated: K((19-Carboxy-nonadecanoyl)-[(Piperazine-1-yl)-acetyl]-Peg3-Peg3); C-terminal amide (-NH2)) [Compound 21] | 0.006 nM | 0.007 nM | > 3 nM |
| YAEGTFISDYSIELDKKAQRAFVEWLLAQGPSSGAPPPS (Aib at 2; Lys 17 side chain acylated: K((19-Carboxy-nonadecanoyl)-[(Piperazine-1-yl)-acetyl]-Peg3-Peg3); C-terminal amide (-NH2)) [Compound 20] | 0.006 nM | 0.007 nM | > 3 nM |
| H-Y[Aib]EGTFISDYSIELEKK([γGlu-Palmitoyl])HQQDFVNWLLAQGPSSGAPPPS-NH2 (SMILES CCCCCCCCCCCCCCCC(=O)N[C@@H](CCC(=O)NCCCC[C@H](NC(=O)[C@H](CCCCN)NC(=O)[C@H](CCC(=O)O)NC(=O)[C@H](CC(C)C)NC(=O)[C@H](CCC(=O)O)NC(=O)[C@@H](NC(=O)[C@H](CO)NC(=O)[C@H](Cc1ccc(O)cc1)NC(=O)[C@H](CC(=O)O)NC(=O)[C@H](CO)NC(=O)[C@@H](NC(=O)[C@H](Cc1ccccc1)NC(=O)[C@@H](NC(=O)CNC(=O)[C@H](CCC(=O)O)NC(=O)C(C)(C)NC(=O)[C@@H](N)Cc1ccc(O)cc1)[C@@H](C)O)[C@@H](C)CC)[C@@H](C)CC)C(=O)N[C@@H](Cc1c[nH]cn1)C(=O)N[C@@H](CCC(N)=O)C(=O)N[C@@H](CCC(N)=O)C(=O)N[C@@H](CC(=O)O)C(=O)N[C@@H](Cc1ccccc1)C(=O)N[C@H](C(=O)N[C@@H](CC(N)=O)C(=O)N[C@@H](Cc1c[nH]c2ccccc12)C(=O)N[C@@H](CC(C)C)C(=O)N[C@@H](CC(C)C)C(=O)N[C@@H](C)C(=O)N[C@@H](CCC(N)=O)C(=O)NCC(=O)N1CCC[C@H]1C(=O)N[C@@H](CO)C(=O)N[C@@H](CO)C(=O)NCC(=O)N[C@@H](C)C(=O)N1CCC[C@H]1C(=O)N1CCC[C@H]1C(=O)N1CCC[C@H]1C(=O)N[C@@H](CO)C(N)=O)C(C)C)C(=O)O) [Compound 3] | 0.014 nM | 0.014 nM |  |
| H-Y[Aib]EGTFISDYSIELDKK([Peg3-Peg3-γGlu-C20 diacid])AQKEFVEWLLAAGPSSGAPPPS-NH2 [Compound 22] | 0.007 nM | 0.005 nM | > 10 nM |
| H-Y[Aib]EGTFISDYSIELDKIAQKEFIEWLLAGPSSGAPPPSK([Peg3-Peg3-γGlu-C20 diacid])-NH2 [Compound 24] | 0.01 nM | 0.008 nM | > 10 nM |
| H-Y[Aib]EGTFISDYSIELDKK([Peg3-Peg3-γGlu-C20 diacid])HQQDFVNWLLAQGPSSGAPPPS-NH2 [Compound 9] | 0.009 nM | 0.008 nM | > 3 nM |
| H-Y[Aib]EGTFISDYSIELDKIAAQDFIEWLLAGPSSGAPPPSK([Peg3-Peg3-γGlu-C20 diacid])-NH2 [Compound 25] | 0.008 nM | 0.032 nM | > 100 nM |
| YAEGTFISDYSIELDKIAAQDFIEWLLAGPSSGAPPPSK (Aib at 2; Lys 39 side chain acylated: K((19-Carboxy-nonadecanoyl)-[(Piperazine-1-yl)-acetyl]-Peg3-Peg3); C-terminal amide (-NH2)) [Compound 26] | 0.032 nM | 0.017 nM | > 10 nM |
| H-Y[Aib]EGTFISDYSIELDKIAAQDFVEWLLAGPSSGAPPPSK([Peg3-Peg3-γGlu-C20 diacid])-NH2 [Compound 27] | 0.017 nM | 0.013 nM | > 10 nM |
| H-Y[Aib]EGTFISDYSIELDKIHQQDFVNWLLAQGPSSGAPPPSK([Peg3-Peg3-γGlu-C20 diacid])-NH2 [Compound 4] | 0.014 nM | 0.013 nM |  |
| H-Y[Aib]EGTFISDYSIELDKIAQRAFIEWLLAGPSSGAPPPSK([Peg3-Peg3-γGlu-C20 diacid])-NH2 [Compound 23] | 0.005 nM | 0.01 nM | > 10 nM |
| H-Y[Aib]EGTFISDYSIELDKIAQRAFIEWLLAQGPSSGAPPPSK([Peg3-Peg3-γGlu-C20 diacid])-NH2 [Compound 28] | 0.013 nM | 0.007 nM | > 3 nM |
